Measured values published in publication PMC9270183 (The Journal of Experimental Medicine, 2022).

Target: T1, 417N/484K/501Y RBD mutant (SARS-CoV-2, Wuhan-Hu-1 RBD backbone …, 417N | 484K | 501Y)
T1 construct: also called RBD KEN
Experiment: BLI
Details: both partners purified

Binder | Kd
V024 (antibody, V domains shown, IgG; donor BRA13) VH: QVQLVESGGGVVQPGRSLRLSCAASGFTFSSYGMHWVRQAPGKGLEWVAVISYDGSNKYYADSVKGRFTISRDNSKNTLYLQMNSLRGEDTAVYYCAKAGYGYSYGYGQIDYWGQGTLVTVSS VL: not shown | 33.2 nM
V062 (antibody, V domains shown, IgG; donor BRA15; source: recombinant monoclonal IgG, produced and purified as previously described) VH: QLQLQESGPGLVKPSETLSLTCTVSSGSISSSSYYWGWIRQPPGKGLEWIGSIYYSGSTYYNPSLKSRVTISVDTSKNQFSLKLSSVTAADTAVYYCARHWRENFAHAFDIWGQGTMVTVSS VL: QSALTQPASVSGSPGQSITISCTGTSSDVGSYDLVSWFQQHPGKAPKLMIYEVTKRPSGVSNRFSGSKSGNTASLTISGLQAEDEADYYCCSYVGSSTYWVFGGGTKLTVL | 1.89 nM
V013 (antibody, V domains shown, IgG; donor BRA13; source: recombinant monoclonal IgG, produced and purified as previously described) VH: QVQLVESGGGVVQPGRSLRLSCAGSGFIFSSFAMHWVRQAPGKGLEWVAVVSYDGDNKYYADSVKGRFTISRDNSKNTLYLQMDSLRPEDTAVYFCGRDEAALWIQRWYREIDFWGQGTLVTVSS VL: QSVLTQPPSVSGTPGQRVTISCSGSSSNTGRNPVTWYQQFPGSAPKLLISRNNQRPSGVPDRFSGSKSGTSASLAISGLQSEDEADYYCAAWDDNLNGQVFGGGTKVTVL | 166 nM
V014 (antibody, V domains shown, IgG; donor BRA13; source: recombinant monoclonal IgG, produced and purified as previously described) VH: EVQLVESGGGLVQPGGSLRLSCAASGFTFSSYDMHWVRQATGKGLEWVSAIGTAGDTYYPGSVKGRFTISRENAKNSLYLQMNSLRAGDTAVYYCARGVITMVRGVIRDYYYYGMDVWGQGTTVTVSS VL: not shown | 27.3 nM
V010 (antibody, V domains shown, IgG; donor BRA13; source: recombinant monoclonal IgG, produced and purified as previously described) VH: QVQLQESGPGLVKPSETLSLTCTVSGGSISSYYWSWIRQPPGKGLEWIGYIYYNGSTNYNPSLKSRVTISLDTSKNQFSLKLSSVTAADTAVYYCASDYYDSSGYYYGFDYWGQGTLVTVSS VL: not shown | 2.11 nM
V025 (antibody, V domains shown, IgG; donor BRA13; source: recombinant monoclonal IgG, produced and purified as previously described) VH: QVQLVQSGAEVKKPGASVKVSCKASGYTFTSYGISWVRQAPGQGLEWMGWISVYNGKTNYAQKLQGRVTMTTDTSTSTAYMELRSLISDDTAVYYCARADRYNWDYGSSWGQGTLVTVSS VL: not shown | 2.84 nM
V064 (antibody, V domains shown, IgG; donor BRA15; source: recombinant monoclonal IgG, produced and purified as previously described) VH: EVQLVESGGGLVQPGGSLRLSCAASGLTVSRNYMRWVRQAPGKGLEWVSLIYSGGSTFYGDSVKGRFTISRDNSKNTLYLQMNSLRAEDTAVYYCARDLVRDGMDVWGQGTTVTVSS VL: EIVMTQSPATLSVSPGERATLSCRASQSVSSNLAWYQQKPGQAPRLLIYGASTRATGIPARFSGSGSGTEFTLTISSLQSEDFAVYYCQQYNNWTFGQGTKVEIK | 1.91 nM
V009 (antibody, V domains shown, IgG; donor BRA13; source: recombinant monoclonal IgG, produced and purified as previously described) VH: EVQLVQSGAEVKKPGESLKISCKGSGYRFTSYWIGWVRQMPGKGLEWMGIIYAGDSDTRYSPSFQGQVTISVDKSISTAYLQWSSLKASDTAMYYCATTMTTGYFDYWGQGTLVTVSS VL: not shown | 1.83 nM
V011 (antibody, V domains shown, IgG; donor BRA13; source: recombinant monoclonal IgG, produced and purified as previously described) VH: QVQLVQSGAEVKKPGASVKVSCKASGYIFTSYDINWVRQATGQGLEWMGWMNPNSGNTGYAQKFQGRVTMTRNTSISTAYMELSSLRSEDTAVYYCARASSSLTYYFDYWGQGTLVTVSS VL: SYELTQPPSVSVAPGKTARITCGENNIGSKSVHWYQQKPGQAPVLVVYDDSDRPSGIPERFSGSNSGNTATLTISRVEAGDEADYYCQVWDSSSDPVVFGGGTKLTVL | 6.96 nM
V002 (antibody, V domains shown, IgG; donor BRA13; source: recombinant monoclonal IgG, produced and purified as previously described) VH: EVQLVESGGGLVQPGRSLRLSCAASGFTFDEYAMHWVRQAPGKGLEWVSGSSWNSGTIGYADSVKGRFTISRDNAKNSLYLQMNSLRAEDTALYYCAKSQGDYGGNSGAGYFQHWGQGTLVTVSS VL: SYELTQPPSVSVAPGKTARITCGGNNIGSKSVHWYQQKPGQAPMLVVYDDSDRPSGIPERFSGSNSGNTATLTISRVEAGDEADYYCQVWDSSSEVYVFGTGTKVTVL | 979 nM
V020 (antibody, V domains shown, IgG; donor BRA13; source: recombinant monoclonal IgG, produced and purified as previously described) VH: QVQLVESGGGVVQPGRSLRLSCAASGFTFSSYGMHWVRQAPGKGLEWVAVISYDGSNKYYADSVKGRFTISRDNSKNTLYLQMNSLRAEDTAVYYCAKGGWFGELLRYFDYWGQGTLVTVSS VL: not shown | 94.8 nM
V026 (antibody, V domains shown, IgG; donor BRA13; source: recombinant monoclonal IgG, produced and purified as previously described) VH: QVQLVESGGGVVQPGRSLRLSCAVSGFTFSSYGMHWVRQAPGKGLEWVAVISYEGSNKYYADSVKGRFTISRDNSKNTLYLQMNSLRAEDTAVYYCAKGGWYGSPTYYFDYWGQGTLVTVSS VL: not shown | 11.9 nM
V017 (antibody, V domains shown, IgG; donor BRA13; source: recombinant monoclonal IgG, produced and purified as previously described) VH: EVQLVESGGGLVQPGGSLRLSCVASGFTFSTYSMNWVRQAPGKGLEWVSYISSSSSTIYYADSVKGRFTISRDNAKSSLYLQMNSLRAEDTAVYYCASGLCGGDCPLTCWGQGTLVTVSS VL: not shown | 27.1 nM
V027 (antibody, V domains shown, IgG; donor BRA14; source: recombinant monoclonal IgG, produced and purified as previously described) VH: not shown VL: NFMLTQPHSVSESPGKTVTISCTRSSGSIASNYVQWYQQRPGSAPTTVIYEDNQRPSGVPDRFSGSIDSSSNSASLTISGLKTEDEADYYCQSYDSSNHRVFGGGTKLTVL | 37.3 nM
V019 (antibody, V domains shown, IgG; donor BRA13; source: recombinant monoclonal IgG, produced and purified as previously described) VH: QVQLVQSGAEVKKPGSSVKVSCKASGGTFSTYTFSWVRQAPGQGLEWMGRIIPILGIANYAQKFQGRITITADKSTSTAYMELSSLRSEDTAVYYCAWGSYSYGYFVDIWGQGTMVTVSS VL: DIVMTQTLLSLSVTPGQPASISCKSSQSLLHSDGKTYLYWYLQKPGQSPQLLIYEVSSRFSGVPDRFSGSGSGTDFTLKISRVEAEDVGVYYCMQGIQFHWTFGQGTKLEIK | 3.31 nM
V028 (antibody, V domains shown, IgG; donor BRA14; source: recombinant monoclonal IgG, produced and purified as previously described) VH: QVQLVESGGGVVQPGRSLRLSCAASGFTFSSYGMHWVRQAPGKGLEWVAVVSFDGSDKYYADSVKGRFTISRDNSKNTLYLQMNSLRAEDTALYYCAKGGYSYAYPRYYFDYWGQGTLVTVSS VL: DIQMTQSPSSLSASVGDRVTITCQASQDISNYLNWYQQKPGKAPKLLIYDASNLETGVPSRFSGSGSGTDFTFTISSLQPEDIATYYCQQHDNLPITFGQGTRLEIK | 44.6 nM
V031 (antibody, V domains shown, IgG; donor BRA14; source: recombinant monoclonal IgG, produced and purified as previously described) VH: QVQLVESGGGVVQPGRSLRLSCAASGFTFSSYGMHWVRQAPGKGLEWVAVISYDGSNKYYADSVKGRFAFSRDNSKNTLYLQMNSLRAEDTAVYYCAKGGYSYAYPRYYFDYWGQGTLVTVSS VL: DIQMTQSPSSLSASVGDRVTITCQASQDISNYLNWYQQKPGKAPKLLIYDASNLETGVPSRFSGSGSGTDFTFTISSLQPEDIATYYCQQHDNLPITFGQGTRLEIK | 14.5 nM
V063 (antibody, V domains shown, IgG; donor BRA15; source: recombinant monoclonal IgG, produced and purified as previously described) VH: QVQLVESGGGVVQPGRSLRLSCAASGFPFSSFGMHWVRQAPGKGLEWVAVISSDGSNKYYADSVKGRFTISRDNSKNTLYLQMNSLRAEDTAVYYCAKEFTYVVVTAFWGTENFDIWGQGTMVTVSS VL: DIQMTQSPSTLSASVGDRVTITCRASQSISSWLAWYQQKPGKAPNLLIYKASALESGVPSRFSGSGSGTEFTLTISSLQPDDFATYYCQQYNSYPITFGQGTRLEIK | 3.34 nM
V016 (antibody, V domains shown, IgG; donor BRA13; source: recombinant monoclonal IgG, produced and purified as previously described) VH: QVQLVESGGGVVQPGRSLRLSCAASGFTFSNYGMHWVRQAPGKGLEWVAVISYDGSNKYYADSVKGRFTISRDNSKNTLYLQMNSVRVEDTAVYYCAKGSFGYSYVHTYFDYWGQGTLVTVSS VL: DIQMTQSPSTLSASVGDRVTITCRASQSISSWLAWYQQKPGKAPKLLIYDASSLESGVPSRFSGSGSGTEFILTISSLQPDDFATYYCQQYNSPMYTFGQGTKLEIK | 4.43 nM
V021 (antibody, V domains shown, IgG; donor BRA13) VH: QVQLQESGPGLVKPSQTLSLTCTVSGGSISSGSYYWSWIRQPVGKGLEWIGRIYTSGSTNYNPSLKSRVTISVDTSKNQFSLELSSVTAADRAVYYCARESSPASIPVRGVIWWFDPWGQGTLVTVSS VL: not shown | 32.6 nM
V022 (antibody, V domains shown, IgG; donor BRA13; source: recombinant monoclonal IgG, produced and purified as previously described) VH: EVQLVESGGGLVKPGGSLRLSCAASGFTFSSYSMNWVRQAPGKGLEWVSSISSTNNYIYNADSVKGRFTISRDNAKNSLYLQMNSLRAEDTAVYYCARDPAGRYSYGLYYFYYMDVWGKGTTVTVSS VL: QSALTQPASVSGSPGQSITISCTGTSSDVGGYNYVSWYQQRPGKAPKLMIYDVSNRPSGVSDRFSGSKSGNTASLTISGLQAEDEADYYCTSYTSSSSLYVFGTGTKVTVL | 5.71 nM
V015 (antibody, V domains shown, IgG; donor BRA13; source: recombinant monoclonal IgG, produced and purified as previously described) VH: EVQLVESGGGLVQPGGSLRLSCAASGFTFNSYWMSWVRQAPGKGLEWVANIKQDGSEKYYVDSVKGRFTISRDNAKNSLYLQMNSLRAEDTAVYYCARLPTYYSGFDYWGQGTLVTVSS VL: NFMLTQPHSVSESPGKTVTISCTGSSGSIASNYVQWYQQRPGSAPTTVIYEDNQRPSGVPDRFSGSIDSSSNSASLTISGLKTEDEADYYCQSYDSTNRGVVFGGGTKLTVL | 14.3 nM
